Assay results reported in PMC8445599.

Target: FLAG-RepoMan-Ubc9
Assay: co-immunoprecipitation (IP anti-HA, immunoblot anti-FLAG, quantified with ImageJ)
Settings: 293FT cells; lane 18; with CFP-SUMO2(R59E); ratio of SUMOylated to non-SUMOylated FLAG-RepoMan(WT)-Ubc9 co-precipitated with HA-lamin A; input ratio 0.99 (lane …)

other: SUMOylated/non-SUMOylated: 0.31
Substance: HA–lamin A (WT) (from UniProt P02545) V494E; V495E
